For the assay, the target named is HBcS-NadA-CFHbp (Hepatitis B Virus | Neisseria meningitidis strain MC58) (UniProt Q9JXV4). The experiment in a line: cryo-EM structure; single particle cryoelectron microscopy of purified HBcS-NadA-CFHbp VLPs; 3.4 Å map; HBc T = 4 crystal structure fitted and refined; method details in Supplementary Materials.

The stoichiometry N is a count of units in the complex or per binding partner. “HBcS-NadA-CFHbp (from UniProt Q9JXV4 157-274)” yielded a stoichiometry N of 240 copies.

These data come from article PMC7113836.
